Non-standard residues stand in square brackets, D forms with d. No end group written: not given here. 1Nal = N[C@@H](Cc1cccc2ccccc12)C(=O)O; Nle = CCCC[C@H](N)C(=O)O; Aib = CC(C)(N)C(=O)O; βAla = NCCC(=O)O
How the values were obtained:
[1] = molecular target: human parathyroid hormone receptor 2 (human, UniProt P49190); assay: cell-based or functional assay
[2] = molecular target: human parathyroid hormone receptor 1 (human, UniProt Q03431); assay: cell-based or functional assay

B1: [Aib^1, Nle^8,18, β-Ala^17, 1-Nal^23] hPTH (1-34)-NH2 (peptide)
peptide: [Aib]VSEIQL[Nle]HNLGKHLN[βAla][Nle]ERVE[1Nal]LRKKLQDVHNF-NH2
modifications: N-terminus assumed
SMILES: CCCC[C@H](NC(=O)CCNC(=O)[C@H](CC(N)=O)NC(=O)[C@H](CC(C)C)NC(=O)[C@H](Cc1c[nH]cn1)NC(=O)[C@H](CCCCN)NC(=O)CNC(=O)[C@H](CC(C)C)NC(=O)[C@H](CC(N)=O)NC(=O)[C@H](Cc1c[nH]cn1)NC(=O)[C@H](CCCC)NC(=O)[C@H](CC(C)C)NC(=O)[C@H](CCC(N)=O)NC(=O)[C@@H](NC(=O)[C@H](CCC(=O)O)NC(=O)[C@H](CO)NC(=O)[C@@H](NC(=O)C(C)(C)N)C(C)C)[C@@H](C)CC)C(=O)N[C@@H](CCC(=O)O)C(=O)N[C@@H](CCCNC(=N)N)C(=O)N[C@H](C(=O)N[C@@H](CCC(=O)O)C(=O)N[C@@H](Cc1cccc2ccccc12)C(=O)N[C@@H](CC(C)C)C(=O)N[C@@H](CCCNC(=N)N)C(=O)N[C@@H](CCCCN)C(=O)N[C@@H](CCCCN)C(=O)N[C@@H](CC(C)C)C(=O)N[C@@H](CCC(N)=O)C(=O)N[C@@H](CC(=O)O)C(=O)N[C@H](C(=O)N[C@@H](Cc1c[nH]cn1)C(=O)N[C@@H](CC(N)=O)C(=O)N[C@@H](Cc1ccccc1)C(N)=O)C(C)C)C(C)C
In the case of B1, the “hPTHR-2 EC50 (nM), luciferase reporter gene assay” value [1] is reported as 46 nM and the “hPTHR-1 EC50 (nM), CRE-luciferase reporter gene assay” value [2] is reported as 0.22 nM.

Source: US20110195900A1, “PEPTIDIC PTH RECEPTOR AGONISTS” (FERRING B.V., priority 2008, published 2011)
